Target: T1, human F1Fo-ATPase (Homo sapiens, UniProt P06576)
T1 construct: Human F1Fo-ATPase was purified from HepG2 cells by immunocapture; endogenous in cells; host or cells: HepG2 cells; complex isolated by immunocapture with anti-ATP synthase antibody 12F4AD8AF8 (#ab109867, Abcam)
Assay: F1-ATPase activity assay (NADH-coupled, purified enzyme)
Type: biochemical
Details: 1 μM
Text: The mature human IF1 protein (SEQ ID NO: 5) was chemically synthesized by GenScript (Piscataway, N.J., USA) at >80% purity. The peptides derived from the mature human IF1 sequence (IF1-1-60, IF1-10-56, IF1-10-47) were produced by BachemAG (Bubendorf, Switzerland) with >90% purity.
Human F1Fo-ATPase was purified from HepG2 cells by immunocapture using mouse monoclonal anti-ATP synthase antibody (12F4AD8AF8, #ab109867, Abcam) according to manufacturer's instructions.
Measurement of F1-ATPase activity was assayed as previously described. Briefly, 10 μg of F1Fo-ATPase was prepared into 50 μL of activity assay buffer (10 mM HEPES, 150 mM NaCl, 5 mM KCl, 5 mM MgCl2, 0.5 mM phosphoenolpyruvate, 250 μM NADH, 100 μM ATP, 20 U lactate dehydrogenase, 120 U pyruvate kinase). The mixture was incubated at 37° C. for 30 min. Then the F1-ATPase activity was measured in a 96-well microplate by adding 5 μL of the mixture (1 μg of F1Fo-ATPase per point) per well to 200 μL of activity assay buffer at 37° C., and by adding 5 μL of buffer with or without peptide (1 μM each). The reduction in the absorbance of NADH was measured at 340 nm for 5 min with a Varioskan™ Flash Multimode Reader (Thermo Fisher Scientific). A slope was calculated for each well and the results expressed as a percentage of the control slope.

inhibition of F1-ATPase activity as compared to control: 96%
B1: IF1: mature human IF1 protein (SEQ ID NO: 5), chemically synthesized, natural inhibitor of F1-ATPase (protein, listed as Homo sapiens)
chain: GSDQSENVDRGAGSIREAGGAFGKREQAEEERYFRAQSREQLAALKKHHEEEIVHHKKEIERLQKEIERHKQKIKMLKHDD

— patent publication US20230050846A1, “TREATMENT OF HEPATIC AND CARDIOVASCULAR DISORDERS” (LIFESEARCH, priority 2019, published 2023)
